The text below walks through data of patent US20160108097A1.

Holding throughout (experiment): cell-based or functional assay
Assay [1] addresses HIV-1 subtype B envelope CAAN5342.A2 (HIV-1 subtype B).
In assay [2] the target is HIV-1 subtype A envelope Q168.a2 (HIV-1 subtype A).
Assay [3] concerns the target HIV-1 subtype C envelope Du179.14 (HIV-1 subtype C).
The target of assay [4] is HIV-1 subtype B envelope JR-FL (HIV-1 subtype B).
The target of assay [5] is HIV-1 subtype C envelope DU151.2 (HIV-1 subtype C).
The target in assay [6] is HIV-1 subtype C envelope CAP206.8 (HIV-1 subtype C).
Assay [7] concerns the target HIV-1 subtype A envelope Q23.17 (HIV-1 subtype A).
Assay [8] addresses HIV-1 subtype B envelope QH0692.42 (HIV-1 subtype B).
Assay [9] concerns the target HIV-1 subtype C envelope COT6.15 (HIV-1 subtype C).
Assay [10] has as its target GRFT-resistant envelope Du179 GRFT c17 (R).
Assay [11] deals with HIV-1 subtype C envelope Du156.12 (HIV-1 subtype C).
Assay [12] addresses GRFT-resistant envelope Du156R18 (R).
For assay [13], the target named is Env of HIV-1RF virus (HIV-1 RF).
Assay [14] deals with HIV-1 subtype B envelope PVO.4 (HIV-1 subtype B).

Sequence of griffithsin (GRFT), native domain-swapped dimer (P84801 whole entry X31A, the tested form may be a part): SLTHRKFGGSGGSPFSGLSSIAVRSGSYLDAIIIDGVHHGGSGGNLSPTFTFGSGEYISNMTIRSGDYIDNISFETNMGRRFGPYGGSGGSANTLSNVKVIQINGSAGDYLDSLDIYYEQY

In the case of “griffithsin (GRFT), native domain-swapped dimer (from UniProt P84801 1-121)”, the IC50 (pseudovirus neutralization, JC53bl-13 cells) in assay [1] is 7340 pM; in [2], 3800 pM; in [3] it was 606 pM; in [4], 922 pM; in assay [5] it was 1490 pM; in assay [6], 2140 pM. Further, the IC50 (pseudovirus neutralization, JC53bl-13 cells) stood at 1190 pM in assay [7]; 47.3 pM in assay [8]; 734 pM in assay [9]; 32.4 pM in assay [11]; 9140 pM in assay [12]; 37 pM in [14]. In addition, in [10], the fold reduction in activity between the WT (Du179.14) and R viruses is more than 82 fold. Also, the fold reduction in activity between the WT (Du156.12) and R viruses in assay [12] is 282 fold. The Anti-HIV EC50 (XTT cytopathicity assay, HIV-1RF, CEM-SS cells) in assay [13] came out at 13.8 pM.
